Experimental data reported in publication doi:10.1101/2025.01.15.633204.

Target: barnase (Bacillus amyloliquefaciens) (UniProt P00648)
Test: BLI

Chain of UniProt P00648 (P00648 48-157): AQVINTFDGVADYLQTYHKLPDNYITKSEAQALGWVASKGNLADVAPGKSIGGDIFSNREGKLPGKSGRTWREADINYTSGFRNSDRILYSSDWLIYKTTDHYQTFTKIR

Q: How did the Kd turn out when “green fluorescent protein-Bs (GFP-Bs) fusion protein” was run?
A: < 100 pM
